Residue numbers refer to the chain shown, from its start. Where no end group is shown, it is not given here.

Here are results for five molecules from PMC8701324, “Structural Insight into the Mechanism of PALB2 Interaction with MRG15” (Genes, 2021).

Settings in all cases: both partners purified
Test [1] concerns the target T1, MRG15 MRG domain, amino acids 155-323 (UniProt Q9UBU8-2 155-323).
T1 construct: MRG15 (Morf-related gene on chromosome 15), MRG domain, amino acids 155-323; Cloned into the pET28b+-based pSMT3 vector; also called MRG15^155-323; MRG15 fragment; source: E. coli BL21*, purified (Ni-NTA, SUMO tag cleaved with Ulp1, second Ni-NTA flowthrough); not shown: 6xHis, N-terminal, cleaved; SUMO, N-terminal, cleaved
Nature of the test: pull-down; His-tagged PALB2 peptide (0.1 mg/mL) bound to Ni-NTA beads, MRG15 155-323 (0.1 mg/mL) added for 30 min; Buffer B (25 mM HEPES pH 7.5, 10% glycerol, 2 mM CHAPS, 300 mM NaCl), washes with 20 mM imidazole, elution with 250 mM imidazole, SDS-PAGE.

Test [2] concerns the target T1, MRG15 MRG domain, amino acids 155-323. Nature of the test: fluorescence polarisation; fluorescence anisotropy; MRG15 fragment serially diluted from 10 uM to 0.6 nM against 10 nM FAM-PALB2 597-630; 25 mM HEPES pH 8.0, 1 mM TCEP, 10% DMSO, 200 mM NaCl; four-parameter logistic fit, EC50 taken as Kd. Background: In fluorescence polarisation assays a small probe gives low polarisation when free and higher when bound to something large.

Test [3] has the same target. Briefly: fluorescence polarisation; fluorescence anisotropy competition; mutant PALB2 597-630 peptides serially diluted from 10 uM to 0.6 nM against a preformed complex of MRG15 and FAM-PALB2; 25 mM HEPES pH 8.0, 1 mM TCEP, 10% DMSO, 200 mM NaCl; room temperature.

T1 sequence (Q9UBU8 194-362): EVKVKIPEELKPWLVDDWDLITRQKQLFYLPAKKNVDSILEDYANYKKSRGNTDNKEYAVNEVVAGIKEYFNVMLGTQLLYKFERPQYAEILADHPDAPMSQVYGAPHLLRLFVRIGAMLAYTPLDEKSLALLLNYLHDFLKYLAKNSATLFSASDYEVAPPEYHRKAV

B1: 6xHis-PALB2^597-630 (peptide, UniProt Q86YC2 597-630, looked up)
chain: MLSLKQLLSFLSITDFQLPDEDFGPLKLEKVKSC
notes: Cloned into pMCSG7; also called His-tagged PALB2 peptide; source: E. coli BL21*, purified (Ni-NTA from 8 M urea, washed down to 1 M urea); not shown: 6xHis, N-terminal, kept
For the molecule B1, the binding result in test [1] is “binds”.

B2: fluorescein-labeled PALB2^597-630 peptide (peptide, UniProt Q86YC2 597-630, looked up)
peptide: B1 chain
modifications: also: fluorescein (FAM) label, position not given here
notes: also called FAM-PALB2; source: synthetic peptide, bought: Genscript Biotech
The molecule B2 registered an equilibrium dissociation constant (Kd) in test [2] of 23.4 ± 5 nM.

B3: PALB2^597-630 peptide Pro615Ser (peptide, UniProt Q86YC2 597-630, looked up)
peptide: B1 chain with P19S
notes: also called Pro615 to serine; source: synthetic peptide, bought: Genscript Biotech
Turning to B3, the “fold reduction in binding affinity against the wild-type peptide” value in test [3] came out at 5 fold.

B4: PALB2^597-630 peptide Asp616His (peptide, UniProt Q86YC2 597-630, looked up)
peptide: B1 chain with D20H
notes: also called Asp616 with histidine; source: synthetic peptide, bought: Genscript Biotech
As to B4, the “fold reduction in binding affinity against the wild-type peptide” value in test [3] turned out to be 2 fold.

B5: PALB2^597-630 peptide Pro621Thr (peptide, UniProt Q86YC2 597-630, looked up)
peptide: B1 chain with P25T
notes: also called Pro621 by threonine; source: synthetic peptide, bought: Genscript Biotech
Regarding B5, in test [3], the binding result is “binds”.

For orientation: Kd means the free concentration of one partner at which half of the binding sites on the other are occupied at equilibrium, for simple one-to-one binding. Low readings indicate higher affinity, high ones lower affinity.
